Square brackets hold non-standard residues; d marks the D form. * marks the point of attachment. Biotin = O=C1N[C@H]2[C@H](CS[C@H]2CCCCC(=O)*)N1; pS = N[C@@H](COP(=O)(O)O)C(=O)O
T1: Tau 251-270 peptide phosphorylated at both Ser258 and Ser262 (human, N-terminal biotin; C-terminal amide; phosphoserine at 258 and 262 (numbering of SEQ ID NO:1))
T1 construct: also called pSer258 and pSer262 peptide
T1 peptide: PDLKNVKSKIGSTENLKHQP

T2: Tau 346-360 peptide phosphorylated at Ser352 (human, SMILES …)
T2 construct: also called pSer352
T2 peptide: Biotin-FKDRVQ[pS]KIGSLDNI-NH2

T3: Tau 346-360 peptide phosphorylated at Ser356 (human, SMILES …)
T3 construct: also called pSer356
T3 peptide: Biotin-FKDRVQSKIG[pS]LDNI-NH2

T4: Tau 186-205 peptide (17G2.A1 peptide) (human, N-terminal biotin)
T4 peptide: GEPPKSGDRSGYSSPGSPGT


How the values were obtained:
[1] = target: T5, full-length human Tau (Tau441; 2N4R), recombinant (human, UniProt P10636 1-758); assay: SPR Biacore, IgG captured, r-Tau injected
T5 construct: made in E. coli, His6-Smt3 tag removed; biotinylated through amines for Octet and phage work; also called r-Tau; recombinant Tau
T5 sequence (P10636 other isoform, or with tags, fused parts or gaps limits assumed): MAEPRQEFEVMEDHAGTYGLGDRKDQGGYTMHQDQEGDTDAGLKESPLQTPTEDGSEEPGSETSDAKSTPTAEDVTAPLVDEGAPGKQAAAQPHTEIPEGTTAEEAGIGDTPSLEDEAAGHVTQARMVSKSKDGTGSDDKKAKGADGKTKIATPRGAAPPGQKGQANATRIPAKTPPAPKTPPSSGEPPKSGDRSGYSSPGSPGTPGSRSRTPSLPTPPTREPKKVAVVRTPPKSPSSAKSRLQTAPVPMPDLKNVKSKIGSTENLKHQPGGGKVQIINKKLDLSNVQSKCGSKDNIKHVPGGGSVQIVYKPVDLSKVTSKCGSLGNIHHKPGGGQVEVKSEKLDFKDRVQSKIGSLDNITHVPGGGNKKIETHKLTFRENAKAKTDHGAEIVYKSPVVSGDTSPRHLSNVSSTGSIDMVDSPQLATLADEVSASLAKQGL
Description: (§1) The affinity of chimeric IgG antibodies 1C7, 1A1, 1A5, 1D10, and 1G7 for recombinant Tau was determined by surface plasmon resonance using a Biacore™ T200 instrument. Biacore™ Series S CM5 sensor chips were immobilized with monoclonal mouse anti-human IgG (Fc) antibody (human antibody capture kit from GE Healthcare). 1 μg/mL of antibody was captured for 1 minute on each flow cell and serial 3-fold dilutions of recombinant Tau were injected at a flow rate of […]. Each sample was analyzed with a 3-minute association and a 10-minute dissociation. After each injection the chip was regenerated using 3M MgCl₂. Binding response was corrected by subtracting the RU from a flow cell capturing an irrelevant IgG at similar density. A 1:1 Languir model of simultaneous fitting of kₒₙ and koff was used for kinetics analysis.

[2] = target: T5, full-length human Tau (Tau441; 2N4R), …; assay: Octet binning on biotin-r-Tau; competitor 1G7
Description: (§2) Epitope binning assays were performed using a FortéBio® Octet® RED384 instrument using FortéBio® Streptavidin biosensors. Biotinylated recombinant Tau was diluted to a concentration of 2 μg/mL in kinetic buffer (obtained from FortéBio®) and captured onto individual biosensors for 1 minute. A baseline was then established for 1 minute in kinetic buffer. The loaded biosensors were dipped into 10 μg/mL of the first chimeric IgG antibody until signal saturation, followed by dipping into 1 μg/mL of a second antibody. The binding for the second antibody was normalized to its total binding in the absence of the first antibody.

[3] = target: T5, full-length human Tau (Tau441; 2N4R), …; assay: Octet binning on biotin-r-Tau; competitor 1D10
Description: as §2

[4] = target: T1, Tau 251-270 peptide phosphorylated at …; assay: ELISA on biotinylated peptide
Description: (§3) Peptides corresponding to original binding sites on the microarray were synthesized and included all permutations of phospho-serine epitopes. Peptides were synthesized with a biotinylated N-terminus and C-terminal amide. Peptides were purified and confirmed by mass spectrometry. Peptides were then bound to streptavidin-coated plates in half serial dilutions from 250 ng/well of each peptide. Antibody binding was tested at 1 μg/mL in 5% BSA TBST, followed by washing and detection with goat anti-human HRP (as described above in the “Chimeric IgG ELISA” section).

[5] = target: T2, Tau 346-360 peptide phosphorylated at …; assay: ELISA on biotinylated peptide
Description: as §3

[6] = target: T3, Tau 346-360 peptide phosphorylated at …; assay: ELISA on biotinylated peptide
Description: as §3

cynomolgus monkey Tau = target: T6, cynomolgus monkey Tau (cynomolgus monkey, UniProt P57786 2-459 (rhesus entry)); assay: ELISA, hybridoma antibody
T6 construct: also called cyno Tau; cyno-Tau
T6 sequence (P57786 other isoform, or with tags, fused parts or gaps limits assumed): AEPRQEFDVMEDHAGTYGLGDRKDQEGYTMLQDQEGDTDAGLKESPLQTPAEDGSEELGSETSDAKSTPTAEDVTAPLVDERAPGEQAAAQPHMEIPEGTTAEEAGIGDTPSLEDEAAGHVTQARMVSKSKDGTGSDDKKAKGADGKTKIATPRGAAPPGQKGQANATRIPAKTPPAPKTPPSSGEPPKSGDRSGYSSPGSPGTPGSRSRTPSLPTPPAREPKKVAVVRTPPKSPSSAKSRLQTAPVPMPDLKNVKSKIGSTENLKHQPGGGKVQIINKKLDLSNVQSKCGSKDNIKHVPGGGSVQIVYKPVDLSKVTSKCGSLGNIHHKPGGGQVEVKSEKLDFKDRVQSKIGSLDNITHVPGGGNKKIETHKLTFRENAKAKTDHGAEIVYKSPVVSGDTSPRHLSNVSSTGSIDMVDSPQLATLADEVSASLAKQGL
Description: Primary screening was performed by coating 96-well ELISA Nunc plates overnight at 4° C. with 1 μg/mL r-Tau in PBS. The plates were washed three times with PBST using a Biotek plate washer. 50 µL/well of hybridoma supernatants were added to the plates with incubation at room temperature for 1 hour. Plates were washed three times with PBST. A secondary detection antibody goat X m HRP (Southern Biotech) at 1:2000 dilution, 50 μL/well was added to the plate and incubated for 1 hour at room temperature. At the end of an hour, plates were washed three time with PBST. Plates were developed with 50 μL/well of TMB substrate (Thermo Fisher) and quenched with 50 μL/well of 1N sulfuric acid. The signal was quantified on a BioTek® plate reader at A450. Wells with an OD three times the background for r-Tau were considered positive and carried forward for secondary screening.
Positives from primary screening were carried forward into the secondary screening where they were screened by ELISA using the above protocol on r-Tau, p-Tau, and cyno-Tau for binding and cross-reactivity. Further characterization on the five different Tau isoforms was performed by the same method.

[7] = target: T4, Tau 186-205 peptide (17G2.A1 peptide); assay: direct ELISA on biotinylated peptide
Description: The peptides were diluted in 3% BSA/TBST in 0.5 log dilutions starting at 1 μg/mL and bound to neutravidin coated plates. Plates were washed 5× with TBST between all steps. 17G2.A1 was diluted to 5 μg/mL in 3% BSA/TBST and incubated for 1 hour at room temperature, followed by incubation with anti-mouse IgG-HRP (Novex) diluted 1/5000 in BSA/TBST for 45 minutes at room temperature. ELISAs were developed with 50 μL of 1-step TMB Ultra.

[8] = target: T5, full-length human Tau (Tau441; 2N4R), …; assay: SPR Biacore, antibody captured, r-Tau injected
Description: as §1, with “each hybridoma antibody” for “chimeric IgG antibodies 1C7, 1A1, 1A5, 1D10, and 1G7”, “r-Tau” for “recombinant Tau”, “polyclonal rabbit anti-mouse” for “monoclonal mouse anti-human”, “(mouse” for “(human”, “injection,” for “injection”, “10 mM Glycine-HCl (pH 1.7).” for “3M MgCl₂.”

| Binder | Kd [1] [nM] | normalized binding of second antibody [2] | normalized binding of second antibody [3] | binding result [5] | also measured |
| --- | --- | --- | --- | --- | --- |
| chimeric IgG clone 1A5 (antibody, V domains shown, mouse-human chimeric IgG from HEK293) VH: EVQLQQSGAELVRPGASVKLSCTASGFNIKDSLIHWVKQRPEQGLEWIGWIDPEDGETKYAPKFQDKATKTADTSSNTAYLQLSSLTSEDTAIYYCASGEWDYWGQGTSVTVSS VL: not shown | 0.2 | -0.1 | -0.35 |  |  |
| chimeric IgG clone 1A1 (antibody, V domains shown, mouse-human chimeric IgG from HEK293; also called anti-Tau 1A1; anti-Tau^1A1) VH: EVQLQQSGAELVRPGASVRLSCTASGFNIKDSLMHWLKQRPEQGLEWIGWIDPEDGETKYAPKFQDKATITADTSSNTAYLQLSSLTSEDTAIYYCTRRDWEGPWGQGTLVTVSA VL: not shown | 0.02 |  |  | binds | binding result [4]: binds; binding result [6]: binds |
| chimeric IgG clone 1G7 (antibody, V domains shown, mouse-human chimeric IgG from HEK293) VH: EVQLQQSGAEVVRPGASVKLSCTTSGFNIKDSLMHWLKQRPEQGLEWIGWIDPEDGETKYAPKFQDKATITADTSSNTAYLQLSSLTSGDTAIYYCARRDWEGPWGQGTLVTVSA VL: not shown | 0.1 | -0.03 | -0.12 | binds |  |
| chimeric IgG clone 1D10 (antibody, V domains shown, mouse-human chimeric IgG from HEK293) VH: EVQLQQSGAELVRPGASVKLSCTASGFNIKDSLMHWMKQRPEQGLEWIGWIDPEDGETKYAPKFQDKATLTADTSSNAAYLQLSSLTSEDTAIYYCVRGDWDGGYWGQGTTLTVSS VL: not shown | 0.2 | 0.12 | -0.05 |  |  |
| murine anti-Tau hybridoma antibody 17G2.A1 (antibody, V domains shown, mouse IgG from hybridoma; also called anti-Tau 17G2.A1) VH: QVQLQQPGAELVGPGSSVKLSCKASGYTFINYWIDWMKQSPGQGLEWIGNIYPSDSESHYNQKFTDKATLTVDISSSTAYLQLSSLTSEDSAVYYCALYSKGYWGQGTSVTVSS VL: DVLMTQTPLSLPVTLGDQASISCRSSQNIVHTNGNTYLEWYLQKPGQSPKLLIYKLSSRFSGVPDRFSGSGSGTDFTLKISRVEAEDLGVYYCFQGSHLPFTFGGGTKLEIKR |  |  |  |  | binding result (cynomolgus monkey Tau): binds; binding result [7]: binds; Kd [8]: 2.48 nM; koff [8]: 0.000383 s⁻¹; kon [8]: 155000 M⁻¹ s⁻¹ |

Reference: US20200216522A1 (DENALI THERAPEUTICS, published 2020)
